T1: recombinant N-terminal extracellular domain of the human PTH1R receptor (human, UniProt Q03431 27-188, limits assumed)
T1 construct: domain: N-terminal extracellular domain; Bought reagent; also called N-ECD PTH1R; PTH1R N-terminal ECD
T1 sequence (looked up): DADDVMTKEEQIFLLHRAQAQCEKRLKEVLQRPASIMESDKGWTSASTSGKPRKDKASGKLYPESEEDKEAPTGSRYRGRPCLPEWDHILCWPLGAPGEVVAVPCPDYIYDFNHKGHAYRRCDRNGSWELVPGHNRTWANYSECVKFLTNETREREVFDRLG

T2: mouse PTH1R overexpressed on CHO cells (mouse, UniProt P41593 27-591)
T2 sequence (looked up): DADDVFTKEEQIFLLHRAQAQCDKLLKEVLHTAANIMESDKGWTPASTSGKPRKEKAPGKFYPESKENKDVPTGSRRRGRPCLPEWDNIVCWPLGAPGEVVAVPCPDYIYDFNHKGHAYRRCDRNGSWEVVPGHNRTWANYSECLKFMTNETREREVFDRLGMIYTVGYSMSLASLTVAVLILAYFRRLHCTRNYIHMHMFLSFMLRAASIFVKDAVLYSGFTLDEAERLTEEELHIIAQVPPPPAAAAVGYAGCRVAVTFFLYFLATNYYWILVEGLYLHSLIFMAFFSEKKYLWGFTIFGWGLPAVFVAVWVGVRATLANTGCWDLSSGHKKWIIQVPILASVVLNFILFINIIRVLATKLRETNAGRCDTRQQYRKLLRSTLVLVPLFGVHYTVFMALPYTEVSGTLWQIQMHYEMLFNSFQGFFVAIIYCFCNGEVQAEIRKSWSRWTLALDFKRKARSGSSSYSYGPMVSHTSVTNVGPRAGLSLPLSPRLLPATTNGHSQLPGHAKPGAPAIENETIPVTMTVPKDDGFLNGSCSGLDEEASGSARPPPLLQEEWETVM

T3: human PTH1R overexpressed on CHO cells (human, UniProt Q03431 27-593)
T3 construct: whole, on cells; also called CHO human PTH1R; CHO Human PTHR
T3 sequence (looked up): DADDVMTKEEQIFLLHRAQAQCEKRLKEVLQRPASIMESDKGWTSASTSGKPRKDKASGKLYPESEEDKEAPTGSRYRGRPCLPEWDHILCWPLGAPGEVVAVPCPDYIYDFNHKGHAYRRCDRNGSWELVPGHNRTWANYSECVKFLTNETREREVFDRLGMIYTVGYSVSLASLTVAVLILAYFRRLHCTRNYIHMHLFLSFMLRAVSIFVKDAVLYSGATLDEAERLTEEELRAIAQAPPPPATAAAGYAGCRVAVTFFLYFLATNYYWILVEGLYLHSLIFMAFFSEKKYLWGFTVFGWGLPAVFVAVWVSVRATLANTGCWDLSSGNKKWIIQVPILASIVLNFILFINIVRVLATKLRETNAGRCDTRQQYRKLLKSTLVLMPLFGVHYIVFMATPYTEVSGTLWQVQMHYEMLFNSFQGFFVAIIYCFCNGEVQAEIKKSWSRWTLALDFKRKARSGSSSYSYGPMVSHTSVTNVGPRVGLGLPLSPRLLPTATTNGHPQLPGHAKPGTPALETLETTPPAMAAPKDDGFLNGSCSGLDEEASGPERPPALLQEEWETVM


How the values were obtained:
[1] = target: T1, recombinant N-terminal extracellular …; test: SPR, IgG captured, ECD injected
Method in brief: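 Antibodies (0.5 μg/mL) captured on anti-human IgG-Fc chip to 100–200 RU in HBS-EP+ with 2.5 mg/mL BSA; receptor ECD injected at 30 μL/minute for 240 s, 360 s dissociation, 3M MgCl regeneration. Double-referenced data fit globally for ka and kd; KD=kd/kₐ.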

[2] = target: T2, mouse PTH1R overexpressed on CHO cells; test: cell-based or functional assay
[3] = target: T3, human PTH1R overexpressed on CHO cells; test: flow cytometry on CHO cells, with 3 uM PTHrP as competitor
Protocol: (§1) To characterize antibody binding to PTH1R, cells were labeled with either CellTrace™ CFSE or CellTrace™ Violet. Unlabeled CHOK1 parent, CHO human PTH1R labeled with CellTrace™CFSE, and CHO mouse PTH1R labeled with CellTrace™Violet were pooled together and stained with increasing concentrations of antibody. Antibodies were incubated for 24 hr at 4° C. followed by two washes with FACS Buffer (0.5% BSA, 0.1% NaN3 in DPBS). Cells were then incubated with Allophycocyanin (APC) AffiniPure F(ab′)₂ Fragment Goat Anti-Human IgG (H+L) (Jackson ImmunoResearch, West Grove, Pa.) for 20 minutes at 4° C. Followed by two washes, cells were resuspended in FACS Buffer. Samples were acquired using BD Cytometer (BD Biosciences, San Jose, Calif.) and data were analyzed using FlowJo (FlowJo, LLC, Ashland, Oreg.) and Prism (GraphPad Software, La Jolla, Calif.).

[4] = target: T2, mouse PTH1R overexpressed on CHO cells; test: as above
Protocol: as §1

[5] = target: T3, human PTH1R overexpressed on CHO cells; test: flow cytometry on CHO cells, antibody alone
Protocol: as §1

[6] = target: T2, mouse PTH1R overexpressed on CHO cells; test: flow cytometry on CHO cells, antibody alone
Protocol: as §1

Binder | Kd [1] [nM] | koff [1] [s⁻¹] | kon [1] [M⁻¹ s⁻¹] | EC50 of PTH(1-34), cAMP assay, with 267 nM IgG [2] [nM] | EC50 [3] [nM] | EC50 [4] [nM] | EC50 [5] [nM] | EC50 [6] [nM] | EC50 of PTHrP(1-34), cAMP assay, with 267 nM IgG [2] [nM] | fold-shift in PTH(1-34) EC50 vs vehicle only, cAMP assay [2] [fold] | fold-shift in PTHrP(1-34) EC50 vs vehicle only, cAMP assay [2] [fold]
XPA.85.329 (antibody, V domains shown, IgG; also called Ab329; XPA.329) VH: QMQLVQSGAEVKKPGSSVKVSCKASGGTFSSYAISWVRQAPGQGLEWMGGIIPIFGTANYAQKFQGRVTITADESTSTAYMELSSLRSEDTAVYYCARGYVVARLWGQGTLVTVSS VL: DIVMTQTPLSLSVTPGQPASISCKSSQSLLHIDGLTYLYWYLQKPGQPPQLLIYEVSHRFSGVSDKFSGSGSGTDFTLTISRVEAEDVGVYYCMQSLHLPITFGQGTRLEIK | 0.22 | 7.6e-05 | 340000 | – | – | – | – | – | – | – | –
XPA.85.341 (antibody, V domains shown, Light-chain-shuffled variant of XPA.85.017) VH: EVQLVETGGGVVRPGGSLRLSCAASGFTFSSSAMSWVRQTPGKELQWVSAITPGGEGTYYADVVKGRFTISRDNSKDTLYLQMDSLRAEDTAVYYCARDLYGSYGDAFDIWGQGTLVTVSS VL: SYELTQPSSVSVSPGQTASITCSGDKLGEKYASWYQQKPGQSPVLVMFEDTKRPSGIPERFSGSNSGNTATLTISGTQAEDEADYYCQAWDSSWVFGGGTQLTVL | 0.31 | 0.0006 | 1.9e+06 | 2.15 | 1.11 | 14.5 | 0.196 | 0.337 | – | – | –
XPA.85.287 (antibody, V domains shown, also called Ab287) VH: EVQLVETGGGVVRPGGSLRLSCAASGFTFSSSAMSWVRQTPGKELQWVSAITPGGEGTYYADVVKGRFTISRDNSKDTLYLQMDSLRAEDTAVYYCARDLYGSYGDAFDIWGQGTLVTVSS VL: SYVLTQPPSVSVAPGQTARITCSGDKLGDRYVSWYQQKPGQSPVLVMFEDTGRPAGIPERFSGSNSGNTATLTISGTQAEDEADYYCQAWGTSWVFGGGTQLTVL | 0.099 | 0.00036 | 3.6e+06 | 13.6 | 0.304 | 1.51 | 0.0909 | 0.281 | 5.77 | > 100 | > 100
XPA.85.339 (antibody, V domains shown, Light-chain-shuffled variant of XPA.85.017) VH: EVQLVETGGGVVRPGGSLRLSCAASGFTFSSSAMSWVRQTPGKELQWVSAITPGGEGTYYADVVKGRFTISRDNSKDTLYLQMDSLRAEDTAVYYCARDLYGSYGDAFDIWGQGTLVTVSS VL: SYELTQPPSVSVAPGQTATITCSGDRLGDKFISWYQQKPGQSPLLVIFEDNERPSRIPERFSGSNSGNSATLTISGTQAVDEADYYCQAWDSSWVFGGGTQLTVL | 0.22 | 0.00065 | 2.9e+06 | 1.95 | 0.479 | 18.7 | 0.0984 | 0.258 | – | – | –

From patent US20200317817A1 (XOMA US, published 2020)
